What was measured:
Experiment in all cases: fluorescence polarisation
[1] = molecular target: Bovine full-length RIα, wild type (bovine, UniProt P00514 1-380)
[2] = molecular target: Bovine full-length RIα C16A (bovine)
[3] = molecular target: Bovine full-length RIα C37A (bovine)
[4] = molecular target: Bovine full-length RIα Y19A (bovine)
[5] = molecular target: Bovine full-length RIα H23A (bovine)

Bovine full-length RIα, wild type, sequence (P00514 whole entry): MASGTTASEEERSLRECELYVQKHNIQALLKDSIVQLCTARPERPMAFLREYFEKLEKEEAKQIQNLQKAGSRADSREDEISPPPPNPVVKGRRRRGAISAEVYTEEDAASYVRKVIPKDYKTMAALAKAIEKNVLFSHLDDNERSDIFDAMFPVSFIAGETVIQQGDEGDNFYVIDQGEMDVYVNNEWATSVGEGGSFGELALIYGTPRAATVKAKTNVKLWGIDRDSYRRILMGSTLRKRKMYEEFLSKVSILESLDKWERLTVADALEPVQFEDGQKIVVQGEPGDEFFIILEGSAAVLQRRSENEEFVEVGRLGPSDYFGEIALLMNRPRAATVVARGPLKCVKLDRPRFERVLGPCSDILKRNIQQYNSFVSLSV

B1: D-AKAP2 AKB peptide (residues 623-650), last residue changed to Cys, fluorescently labeled (peptide)
chain: VQGNTDEAQEELAWKIAKMIVSDVMQQC
modifications: fluorescin-5-maleimide or tetramethylrhodamine-5-maleimide on the Cys that replaces the last residue
Kd [1]: 48 nM | Kd [2]: 126 nM | Kd [3]: 745 nM | Kd [4]: 1330 nM | Kd [5]: 198 nM
